The values that follow come from article PMC10770396, “Dimerization of the 4Ig isoform of B7-H3 in tumor cells mediates enhanced proliferation and tumorigenic signaling” (Communications Biology, 2024).

Data set [1] deals with the molecule itself. Nature of the data set: SEC; analytical SEC, Superdex 200 10/300, PBS + 0.1 M NaCl + 0.05% NaN3, flow 0.5 ml/min, protein at 100 μg/mL; apparent molecular weight from a calibration curve; monomer to dimer. In general terms: SEC sorts molecules by how far they enter the pores of the column.
Data set [2] addresses T1, 4Ig-B7-H3-mEGFP (human), Q5ZPR3.
T1 chain: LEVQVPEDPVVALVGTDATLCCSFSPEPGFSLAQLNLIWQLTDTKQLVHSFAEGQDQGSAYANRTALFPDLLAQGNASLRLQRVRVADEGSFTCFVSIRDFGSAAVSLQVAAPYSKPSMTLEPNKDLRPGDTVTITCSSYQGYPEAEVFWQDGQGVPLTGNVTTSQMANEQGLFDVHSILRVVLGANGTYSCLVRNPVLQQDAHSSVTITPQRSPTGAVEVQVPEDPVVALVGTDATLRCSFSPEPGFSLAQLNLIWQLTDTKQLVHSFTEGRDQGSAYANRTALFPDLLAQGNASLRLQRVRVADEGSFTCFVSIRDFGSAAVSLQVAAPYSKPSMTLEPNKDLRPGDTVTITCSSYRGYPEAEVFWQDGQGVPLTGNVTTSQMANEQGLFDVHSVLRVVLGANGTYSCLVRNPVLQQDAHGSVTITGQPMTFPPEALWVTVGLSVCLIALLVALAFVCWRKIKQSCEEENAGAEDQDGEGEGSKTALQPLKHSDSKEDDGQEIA
Briefly: FRET or BRET; homo-FRET fluorescence lifetime imaging (FRET-FLIM, TCSPC) of mEGFP fusions in fixed, transiently transfected HeLa CD276-/- KO cells; bi-exponential fit. The note with it: remark: other sources report otherwise. Background: In BRET a luciferase serves as donor, and the signal depends on an acceptor being close.

B1: human 4Ig-B7-H3 extracellular domain (amino acids: Gly27 – Thr461), recombinant (domain or fragment, UniProt Q5ZPR3 27-461, looked up)
chain: GALEVQVPEDPVVALVGTDATLCCSFSPEPGFSLAQLNLIWQLTDTKQLVHSFAEGQDQGSAYANRTALFPDLLAQGNASLRLQRVRVADEGSFTCFVSIRDFGSAAVSLQVAAPYSKPSMTLEPNKDLRPGDTVTITCSSYQGYPEAEVFWQDGQGVPLTGNVTTSQMANEQGLFDVHSILRVVLGANGTYSCLVRNPVLQQDAHSSVTITPQRSPTGAVEVQVPEDPVVALVGTDATLRCSFSPEPGFSLAQLNLIWQLTDTKQLVHSFTEGRDQGSAYANRTALFPDLLAQGNASLRLQRVRVADEGSFTCFVSIRDFGSAAVSLQVAAPYSKPSMTLEPNKDLRPGDTVTITCSSYRGYPEAEVFWQDGQGVPLTGNVTTSQMANEQGLFDVHSVLRVVLGANGTYSCLVRNPVLQQDAHGSVTITGQPMT
notes: B7-H3 (CD276), human, 4Ig isoform, extracellular domain, residues Gly27 – Thr461; commercial proteins of this kind often carry a C-terminal His tag (surmise); also called CD276; source: bought: R&D Systems (functionally active recombinant protein)
On to B1, for which, in data set [1], the stoichiometry N – broadly, the number of molecules, sites or subunits per partner or assembly – was found to be 2.

B2: murine 2Ig-B7-H3 extracellular domain (amino acids: Val29 – Phe244), recombinant (domain or fragment, UniProt Q8VE98 29-244, looked up)
chain: VEVQVSEDPVVALVDTDATLRCSFSPEPGFSLAQLNLIWQLTDTKQLVHSFTEGRDQGSAYSNRTALFPDLLVQGNASLRLQRVRVTDEGSYTCFVSIQDFDSAAVSLQVAAPYSKPSMTLEPNKDLRPGNMVTITCSSYQGYPEAEVFWKDGQGVPLTGNVTTSQMANERGLFDVHSVLRVVLGANGTYSCLVRNPVLQQDAHGSVTITGQPLTF
notes: B7-H3 (CD276), murine, 2Ig isoform, extracellular domain, residues Val29 – Phe244; also called murine B7-H3; source: bought: R&D Systems (functionally active recombinant protein)
For B2, the “stoichiometry N” value in data set [1] was 2.

B3: 4Ig-B7-H3-mEGFP, Q5ZPR3 29-534 (natural protein)
chain: LEVQVPEDPVVALVGTDATLCCSFSPEPGFSLAQLNLIWQLTDTKQLVHSFAEGQDQGSAYANRTALFPDLLAQGNASLRLQRVRVADEGSFTCFVSIRDFGSAAVSLQVAAPYSKPSMTLEPNKDLRPGDTVTITCSSYQGYPEAEVFWQDGQGVPLTGNVTTSQMANEQGLFDVHSILRVVLGANGTYSCLVRNPVLQQDAHSSVTITPQRSPTGAVEVQVPEDPVVALVGTDATLRCSFSPEPGFSLAQLNLIWQLTDTKQLVHSFTEGRDQGSAYANRTALFPDLLAQGNASLRLQRVRVADEGSFTCFVSIRDFGSAAVSLQVAAPYSKPSMTLEPNKDLRPGDTVTITCSSYRGYPEAEVFWQDGQGVPLTGNVTTSQMANEQGLFDVHSVLRVVLGANGTYSCLVRNPVLQQDAHGSVTITGQPMTFPPEALWVTVGLSVCLIALLVALAFVCWRKIKQSCEEENAGAEDQDGEGEGSKTALQPLKHSDSKEDDGQEIA
For the molecule B3, in data set [2], the mEGFP fluorescence lifetime, bi-exponential fit, first fraction stood at 2.57 ns and the mEGFP fluorescence lifetime, bi-exponential fit, second fraction is 1.33 ns.
